Test results as given in PMC7477632, “Aptamer-based surface-enhanced resonance Raman scattering assay on a paper fluidic platform for detection of cardiac troponin I”.

Experiments:
[1] = target: T1, cardiac troponin I (cTnI) (UniProt P19429 2-210); assay: sandwich SERRS lateral-flow assay; detector aptamer on AuNP; N1 on test line as capture; assay LOD 0.016 ng/ml; running buffer PBS with 0.25% Tween; sample pad pretreated with 0.05 M Tris pH 7.6, 0.15 M NaCl, 0.25% Triton X-100; assay temperature not stated; conditions: protein: commercial
[2] = target: T1, cardiac troponin I (cTnI); assay: sandwich SERRS lateral-flow assay; capture aptamer on test line; N2 on AuNP as detector; assay LOD 0.016 ng/ml; running buffer PBS with 0.25% Tween; sample pad pretreated with 0.05 M Tris pH 7.6, 0.15 M NaCl, 0.25% Triton X-100; assay temperature not stated; conditions: protein: commercial

T1 sequence (P19429 2-210): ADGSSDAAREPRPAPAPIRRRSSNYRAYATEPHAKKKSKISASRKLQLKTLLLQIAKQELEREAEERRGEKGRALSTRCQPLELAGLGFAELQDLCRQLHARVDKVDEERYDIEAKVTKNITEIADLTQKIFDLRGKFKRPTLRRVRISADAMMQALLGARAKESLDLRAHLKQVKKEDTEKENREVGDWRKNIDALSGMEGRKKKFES

| Binder | binding result [1] | binding result [2] |
| --- | --- | --- |
| CGCATGCCAAACGTTGCCTCATAGTTCCCTCCCCGTGTCC (ssDNA, 5'-amine-spacer 18-spacer 18) [secondary cTnI aptamer] | binds |  |
| TTTTTTCGTGCAGTACGCCAACCTTTCTCATGCGCTGCCCCTCTTA (ssDNA, 5'-biotin) [primary cTnI aptamer] |  | binds |
